Source: patent EP4810057A1

What was measured:
Experiment in all cases: BLI, mAb on Protein A or AMC2 sensor, 1:1 fit
[1] = target: WT-F-Trimer (respiratory syncytial virus, subtype not given)
[2] = target: SCB-1019T(A) (respiratory syncytial virus subtype A (A2 strain))
[3] = target: commercial GSK vaccine F protein control
[4] = target: SCB-1019T(B) (respiratory syncytial virus subtype B (Australian RSV B strain))

Q: For hRSV90 (antibody), which Kd [1] is on record?
A: 12.7 nM

Q: What about the RLU(nm) [1] of the same substance?
A: 0.0884 nm

Q: What about the koff [1] of the same substance?
A: 0.000271 s⁻¹

Q: What about the kon [1] of the same substance?
A: 21400 M⁻¹ s⁻¹

Q: What about the Kd [2] of the same substance?
A: < 0.001 nM

Q: What about the RLU(nm) [2] of the same substance?
A: 0.928 nm

Q: What about the koff [2] of the same substance?
A: < 1e-07 s⁻¹

Q: What about the Kd [3] of the same substance?
A: 0.771 nM

Q: And the RLU(nm) [3]?
A: 1.03 nm

Q: And the koff [3]?
A: 0.000218 s⁻¹

Q: What about the kon [3] of the same substance?
A: 282000 M⁻¹ s⁻¹

Q: What about the Kd [4] of the same substance?
A: 1.94 nM

Q: What about the RLU(nm) [4] of the same substance?
A: 0.068 nm

Q: And the koff [4]?
A: 0.00153 s⁻¹

Q: What about the kon [4] of the same substance?
A: 788000 M⁻¹ s⁻¹

Q: Which RLU(nm) [1] does the source give for AM14 (antibody) here?
A: 0 nm

Q: And the Kd [2]?
A: 0.382 nM

Q: What about the RLU(nm) [2] of the same substance?
A: 0.693 nm

Q: What about the koff [2] of the same substance?
A: 5.67e-05 s⁻¹

Q: And the Kd [3]?
A: 0.484 nM

Q: What about the RLU(nm) [3] of the same substance?
A: 1.34 nm

Q: What about the koff [3] of the same substance?
A: 0.000364 s⁻¹

Q: And the Kd [4]?
A: 0.2 nM

Q: And the RLU(nm) [4]?
A: 0.534 nm

Q: And the koff [4]?
A: 4.43e-05 s⁻¹

Q: And the kon [4]?
A: 222000 M⁻¹ s⁻¹

Q: Which Kd [1] does the source give for AM22 (antibody) here?
A: < 0.001 nM

Q: What about the RLU(nm) [1] of the same substance?
A: 0.123 nm

Q: What about the koff [1] of the same substance?
A: < 1e-07 s⁻¹

Q: And the Kd [2]?
A: 0.209 nM

Q: And the RLU(nm) [2]?
A: 1.13 nm

Q: What about the koff [2] of the same substance?
A: 2.1e-05 s⁻¹

Q: What about the Kd [3] of the same substance?
A: 0.644 nM

Q: And the RLU(nm) [3]?
A: 1.42 nm

Q: What about the koff [3] of the same substance?
A: 0.000196 s⁻¹

Q: What about the kon [3] of the same substance?
A: 304000 M⁻¹ s⁻¹

Q: What about the Kd [4] of the same substance?
A: 0.495 nM

Q: What about the RLU(nm) [4] of the same substance?
A: 1.1 nm

Q: What about the koff [4] of the same substance?
A: 3.99e-05 s⁻¹

Q: What about the kon [4] of the same substance?
A: 80700 M⁻¹ s⁻¹

Q: For D25 (antibody), which Kd [1] is on record?
A: < 0.001 nM

Q: What about the RLU(nm) [1] of the same substance?
A: 0.266 nm

Q: What about the koff [1] of the same substance?
A: < 1e-07 s⁻¹

Q: And the kon [1]?
A: 12100 M⁻¹ s⁻¹

Q: And the Kd [2]?
A: 0.114 nM

Q: What about the RLU(nm) [2] of the same substance?
A: 1.19 nm

Q: What about the koff [2] of the same substance?
A: 3.38e-05 s⁻¹

Q: What about the kon [2] of the same substance?
A: 296000 M⁻¹ s⁻¹

Q: And the Kd [3]?
A: 0.221 nM

Q: And the RLU(nm) [3]?
A: 1.11 nm

Q: And the koff [3]?
A: 0.000104 s⁻¹

Q: And the kon [3]?
A: 472000 M⁻¹ s⁻¹

Q: What about the Kd [4] of the same substance?
A: 0.247 nM

Q: What about the RLU(nm) [4] of the same substance?
A: 1.5 nm

Q: And the koff [4]?
A: 0.000112 s⁻¹

Q: With MPE8 (antibody) as the substance, how does the Kd [1] read?
A: 22.1 nM

Q: And the RLU(nm) [1]?
A: 0.0968 nm

Q: And the koff [1]?
A: 0.000226 s⁻¹

Q: And the Kd [2]?
A: < 0.001 nM

Q: And the RLU(nm) [2]?
A: 0.59 nm

Q: And the koff [2]?
A: < 1e-07 s⁻¹

Q: What about the kon [2] of the same substance?
A: 4.12e+06 M⁻¹ s⁻¹

Q: What about the Kd [3] of the same substance?
A: 2.22 nM

Q: And the RLU(nm) [3]?
A: 0.815 nm

Q: And the koff [3]?
A: 0.000353 s⁻¹

Q: What about the Kd [4] of the same substance?
A: 0.771 nM

Q: And the RLU(nm) [4]?
A: 0.672 nm

Q: And the koff [4]?
A: 3.43e-05 s⁻¹
